From article PMC4891106

Target: Cbl (UniProt P22681)
Experiment: anti-CD93 co-IP, anti-Cbl blot
Details: reference: wild type CD93 (res85); sites Y628,Y644

- binding against the reference: lost
Substance: CD93 (from UniProt Q9NPY3) Y628F/Y644F (res85Y1Y2)
